Experimental data taken from publication PMC4428439.

Biological target: IraP with a C-terminal His10-tag, purified (E. coli) (UniProt P0AAN9)
Sequence (P0AAN9 whole entry): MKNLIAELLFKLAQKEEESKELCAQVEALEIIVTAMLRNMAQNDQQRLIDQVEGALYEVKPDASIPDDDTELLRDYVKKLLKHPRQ

rate of σ^S turnover in the presence of IraP and AcP with a 5-fold excess of RssBN (Figure S4): 2 fold
Substance: RssBN, N-terminal domain of RssB (residues 1-129), untagged, purified (from UniProt P0AEV1 1-129) (domain or fragment)
